Biological target: T1, Recombinant GST-tagged hDPP3 (human) (UniProt Q9NY33)
T1 sequence: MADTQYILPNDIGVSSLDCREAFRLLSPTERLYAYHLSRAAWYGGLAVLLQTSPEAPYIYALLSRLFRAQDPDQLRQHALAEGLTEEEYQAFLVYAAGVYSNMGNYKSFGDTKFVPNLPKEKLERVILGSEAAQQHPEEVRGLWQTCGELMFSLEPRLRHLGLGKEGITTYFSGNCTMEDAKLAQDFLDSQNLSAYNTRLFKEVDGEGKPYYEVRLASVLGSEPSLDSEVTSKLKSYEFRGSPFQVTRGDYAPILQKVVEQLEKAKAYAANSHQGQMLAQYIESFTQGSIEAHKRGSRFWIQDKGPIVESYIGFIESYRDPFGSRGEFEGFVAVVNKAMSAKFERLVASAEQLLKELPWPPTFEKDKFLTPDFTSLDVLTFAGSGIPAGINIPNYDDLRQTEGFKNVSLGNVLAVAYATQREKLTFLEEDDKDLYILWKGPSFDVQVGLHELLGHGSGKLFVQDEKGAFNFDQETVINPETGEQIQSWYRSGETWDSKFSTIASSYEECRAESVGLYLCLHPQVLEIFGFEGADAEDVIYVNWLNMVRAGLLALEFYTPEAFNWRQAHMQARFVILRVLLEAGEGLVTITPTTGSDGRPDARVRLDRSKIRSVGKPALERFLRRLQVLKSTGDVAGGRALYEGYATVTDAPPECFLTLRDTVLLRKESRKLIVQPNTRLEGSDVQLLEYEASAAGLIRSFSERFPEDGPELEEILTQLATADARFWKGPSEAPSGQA
Assay: cell-based or functional assay

B1: anti-DPP3 antibody clone 2555 (antibody, from another filing, V domains shown)
VH: EVQLQQSGPELVKPGASVKISCKASGYSFTGYYIHWVKQSPENSLEWIGEINPSTGGTNYNQKFKGKATLTVDKSSSTAYMQLKSLTSEESAVYYCTRSYYGIYSWFAYWGQGTLVTVSA
VL: DIKMTQSPSSMYASLGERVTITCKASQDIKSYLSWYQQKPWKSPKTLIYYATSLADGVPSRFSGSGSGQDYSLTISSLESDDTATYYCLQHGESPRTFGGGTKLEIK
  Max inhibition of hDPP3: 25%

From patent publication EP3922993A1
